Assay results from the nanobody polyreactivity screen of Harvey et al. (2022).

Assay: yeast display, Sf9 membrane polyspecificity reagent, FACS + sequencing; frameworks hold sequencing errors
In short: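 Galactose induction of a Saccharomyces cerevisiae BJ5465 synthetic nanobody display library ran 36–48 hours. The cells were then stained for 1 hour at 4 °C with 10% biotinylated, detergent-solubilized Sf9 membrane reagent, pulled down on streptavidin microbeads and FACS-sorted into low and high (top ~1%) gates on expression and reagent-binding fluorescence. Labels for polyreactivity follow the gate of origin.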

Row | Sequence | polyreactivity (PSR sort gate)
1 | QVQLVESGGGLVQAGGSLRLSCAASGIIFRVYAMGWYRQAPGKERELVATITWSGGSTFYADSVKGRFTISRDNAKNTVYLQMNSLKPEDTAVYYCAKRGYVRSGLGRPYADDYWGQGTQVTVSS | low polyreactivity
2 | QVQLQESGGLVQAGGSLRMSCAASGSISGRNVMGWYRQAPGKEREFVASITDGSSTNYADSVKGRFTISRDNAKNTLFLQMNSLKPKDTAVYYCAAYAQRGKSFGYWGRGTQVTVSS | low polyreactivity
3 | QVQLVESGGGLVQAGGSLRLSCAASGGIFTYYAMGWYRQAPGKERELVAAITWSGGSTYYADSVKGRFTISRDTAKNTVYLQMNSLKPEDTAVYYCNAVVLHVTTDNSTFTTDDYWGQGTQLTVSS | low polyreactivity
4 | QVHLVDSGGGLVQAGGSLRLSCAASGRIIYGNAMGWYRQSPGKERELVAAISSGTSTNYADSVKGRFTISRDNAKNTVYLQMNSLKPEDTAVYYCAAGSYSRYIYSLYFDFDYWGQGTQVTVSS | low polyreactivity
5 | QVQLVESGGGLVQAGGSLRLSCAASGRIFRWYAMGWYRQAPGKERELVAAISRSGTSTYYADSVKGRFTISRDNAKNTVYLQMNSLKPEDTAVYYCAADAVIFGMDYWGQGTQVTVSS | low polyreactivity
6 | QVQLVESGGGLVQEGGSLRLSCAASGSIFDVYAMGWYRQAPGKERELVAAISSSGSTYYADSVKGRFTISRDNAKNTVYLQMNSLKPEDTAVYYCAADQADDDDYYYWGQVTQVTVSS | low polyreactivity
7 | QVQLVESGGGLVQAGGSLRLSCAASGRIFSRNAMGWYRQAPGKERELVAAITSGGSTYYADSVKGRFTISRDNAKNTVYLQMNSLKPEDTAVYYCAKRLTYYSWYHLYDYWGQGTQVTVSS | high polyreactivity
8 | QDQLEESGGGLVQAGGSLRLSCASSGRIFAGYAMGWYRQAPGKERELVAAISGSGGSTYYADSVKGRFTISRDNAKNTVYLQMNSLKPEDTAVFYCNAGKTSRFQYDYWGQGTQVTVSS | high polyreactivity
9 | QVQLVESGGGLVQAGGSLRLSCAASGSIFRTYAMGWYRQAHGKETELVAAITRSGGTTYYADSVKGRFTISRDNAKNTVYLQMNSLKPEDTAVYFCNAQGYWYKGRRRGDYWGQGTQVTVSS | high polyreactivity
10 | QVQLVESGGGLVQAGGSLRLSCAASGSIFATHAMGWYRQAPGQDRELVAAISWRTGSTVYADSVKGRFTISRDNAKNTDYLQMNSLKPEDTAVYYCAATRRGDNYRYDYWGQGTQVTVSS | high polyreactivity
11 | QVQLVESGGGLVQAGGSLRLSCVASGRIFQSYAMGWYRQAPGKERELVARITGGSSTYYADSVKGRFTISRDNAKNTVYLQMNSLKPEDTAVYYCAARTRGPDRARYDYWGQGTQVTVSS | low polyreactivity
12 | QVQLVESGGGLVHAGGSLRLSCAASGIIFRSYAMGWYRQAPGKERELVAGISLSGGSTYYADSVKGLFTISRDNSKNTVYLQMKSLKPEDTAVYYCATRNHYFRALRYGYWGQGTQVTVSS | high polyreactivity
13 | QVQLVESGAGLVQAGGSRRLSCAASGSIFGVNAMGGYRQAPGKERELVASITGGDSTNYADSVKGRFTISRDNAKNTVYLQMNSLKPEDTAFYYCAKDHYYRYEEGDYWGQGTQVTVSS | low polyreactivity
14 | QVQLVESGGGLVQAGGSLRLSCAASGFSFTRYAMGWYRQAPGKERELVAAIYIGGSTYYADSVKGRFTISRDNAKNTVYFQMNSQKPEDTAVYYCAVDYRHSSSWNAGPWEMYYWGQGTKVTVSS | low polyreactivity
15 | QDQLVESGGGLVQAGGSLRLSCAASGSIFWLNAMGWYRQAPGKERELVAAITTVDSTYYADSVKGRFTISRDNAKNTVYLQMNSLKPEDTAVYYCAASGRQSRYDYWGQGTQVTVSS | low polyreactivity
16 | QVQLVESGGGLVQAGGSLRLICAASGSTFKWYAMGWYRQAPGKERELVAAISSSGGTTYYADSVKGRFTISRDNAKNTVYLQMNSLKPEDTAVYYCAKPYLYSGYGYWGQGTQVTVSS | high polyreactivity
17 | QVQLVESGGGLVQAGGSLRLSCAASGIILPQNAMGWYRQAPGKERELVAAISKSGGRTYYADSVKGRFTISRDNAKNTVYLQMNSLKPEDTAVYYCAAVVRRAPEFDYWGQGTQVTVSS | high polyreactivity
18 | QVQLVESGGGLVQAGGSLRLSCAASGSIVVHNAMGWYRQAPGKERELVAAITWSGGSTYYADSVKGRFTISRDNAKNTVYLQMNSLKPVDTAVYYCAAEDVAAQWAYESPTSYWYYYWGQGTQVTVSS | low polyreactivity
19 | QVQLVESGGGLVQAGGSLRLSCAASGRIFYFNAKGGYRQAPGKERELVAAIRNDTRTYYADSVKGRFTISRDNAKNTVYLQLNSLKPEDTAVYYCAARVYFSVITPIKYNYWGQGTQVTVSS | high polyreactivity
20 | QVQLVESGGGLVQAGGRLRLSCAASGFTFRGYAMGWYRQAPGKERELVAAITKRGGSTYYADSVKGRFTISRDNAKNTVYLQMNSLKPEDTAVYYCNKYAGQTTYDYWGQGTQVTVSS | high polyreactivity
21 | QVQLVESGGGLVQAGGSLRLSCAASGSTFVAYAMGWYRQAPGKERELVAAISASGVRTYYADSVKGRFTISRDNAKNTVYLQMNSLKPEDTAVYYCAATVFRKYRYGYWGQGTQVTVSS | high polyreactivity
22 | QVQLVESGGGLVQAGGSLRLSCAASGSTFVANVMGWYRQAPGKERELVATINSTSGSTYYADSVKGRFTISRDNAKNTVYLQMNSLKPEDTAVYYCNATHEGFELDYWGQGTQVTVSS | low polyreactivity

Row | Sequence | polyreactivity (PSR sort gate)
23 | QVQLVESGGGLVQAGGSLRLSCAASGSTFYIYAMGWYRQAPGKEREFVAAISRTGGSTYYADSVKGRFTISRDNAKNTVYLQMNSLKPEDTAVYYCAAEYKGFRGRYDYWGQGTQVTVSS | high polyreactivity
24 | QVQLVESGGGLVQAGGSLRLSCAASGFIFLRYGMGWYRQAPGKARELVATISWSGDSTYADSVKGRFTISRDNAKNTLYLQMNSLKPEDTAVYYCATSGDWWGFRYDYWGQGTQVTVSS | low polyreactivity
25 | QVQLVESGGGLVQAGGSLRLSCAASGRIFAEYAMGWYIQATGKERELVASISRRGGSTYYADSVKGRFTISRDNAKNTVYLQMNSLKPEDTAVYYCAAVWAYYHTRYSTWGYDYWGQGTQVTVSS | high polyreactivity
26 | QVQLVESGGGLVQAGGSLRLSCAASGRTFELYAMGWYRQAPGKERELVAAIRQSDVSTYYADSVKGRFTISRDNAKNTVYLQMNSLKPEDTAVYYCAARNRYRRRYYYWGQGTQVTVSS | high polyreactivity
27 | QVQLVESGGGLVQAGGSLRLSCAASGFTFAGYAMGWYRQAPGKERELVAGIRSSGARTYYADTVKGRFTISRDNAKNTVYFQLKSLKPDDTAVYYCAKTDGFYGGYGYWGQGTQVTVSS | low polyreactivity
28 | QVQLVESGGGLVQAGGSLRLSCAASGRISRGNAMGWYRHAPGKEREFVAAISWSGDGTYYADSVKGRFTISRDNAKNTVYLQMNSLKPEDTAVYYCADGATPRYSKYDYWGQGTQGTVSS | low polyreactivity
29 | QVQLVESGGGLVQAGGILRLSCAASGRIFRGYAMVWYRQAPGKERELVAAISNGGGTNYADSVKGRFTISRDNAKNTVYLQMNSLKPEDTAVYYFATGFLQNYYKYTSSFRFYYWGQGTQVSVSS | high polyreactivity
30 | QVQLVESGGGLVQAGGSLRLSCAASGRTSSINAMGWYRKAPGKERELVAVITGGGRTSYADSVKGRFTISRDNAKNTVYLQMNSLKPEDTAVYYCNATRSYYGYYYWGQGTQVTVSS | high polyreactivity
31 | QVQLVESGGGLVQAGGSLRLSCAASGSTLTEYAMGWYRQAPGKEREFVAAISRSAGSTYYADSVKGRFTISRDNAKNTVYLQMNSLKPEETAVYYCAVAVRVGFDYFSGQADIYYYWGQGTQVTVSS | low polyreactivity
32 | QVKLVESGGGLVQAGGSLRLSCDASGFIFSLYAMGWYRQEHGKERDLVAAISKRGGSTNYADSVKGRFTISRDNAKNTVYLQMNSLKTEDTAVYYCAKARPVFLYDHWGQGTQLTVSS | high polyreactivity
33 | QVHLVESGGGLVQAGGSLRLSCAASGNSLRVYAMGWYRQAPGKERELVAAISYSSVNTYYADSVKGRFTISRDNAKNTVYLQMNSLKPEETAVYYCAADYFYYRRTQYDLRGYPYYYWGQGTQVTVSS | low polyreactivity
34 | QVQLVESGGGLVQAGGSLRLSCAASGRTFKYYAMGWYRQAPGKERELVASITRGSSTNYADSVKGRFTISRDNAKNTVYLQMNSLKPEDTAVYYCATGPGRALPRPTSAYYYWGQGTQVTVSS | high polyreactivity
35 | QVQLVESGGGLVQAGGSLRLSCAASGRIFGFYAMGWYRPAPGKERELVARITLSGGRTYYADSVKGRFTISRDNAKNTVYLQMNSLKPEDTAVYYCAADSIGRLWGYGYWGQGTQVTVSS | high polyreactivity
36 | QVQLVESGGGLVQAGGSLRLTCAASGSTFWDNAMGWYRQAPGKERELVAAITAIGGTTYYADSVKGRFTISRDNAKNTVYLQMKSLKPEDTAVYYCAAVWSRFLISYSTGWWFEYWGQGTQVTVSS | low polyreactivity
37 | QVQLVESGGGLVQAGGSLRLSCAASGRTFYQYTMGWYRQAPGKERELVAAITTSTGNTYYADSVKGRFTISRDNAKNTDYLQMNSLKPEDTAVYYCAADTVWRLDYWGQGTQVTVSS | low polyreactivity
38 | QVQLVESGGGLLQAGGSLRLSCAASGRTFETNAMGWNRQAPGKQRELVASINWSGGSTYYADSVKGRFTISRDNAKNSVYLQMNSLKPEDTAVYYCAADHSYWDWWSYYYWGQGTQVTVSW | low polyreactivity
39 | QVQLVESAGGLVQAGGSLRLSCAASGIIFTPNPMGWYRQAPGKEREFVAAINYGGDTTYYADSVKGRFTISRNNAKNTVYLQMNRLKPEDTAVYYCATDGTTPTPRDAFVRFDHWGQGTQVTVSS | low polyreactivity
40 | QVQLVESGGGLVQAGGSLRLSCAASGFTGGRYAMGWYRQEPGKERELVDDISWSGGGTYYADSVKGRFTISRDNAKNTVYLQMNSLKPEDTAVYYCAAYWYRSYKRYGYWGQGTQVTVSS | high polyreactivity
41 | QVQLVESGGGLVQAGGSLRLSCAASGSIFGAYAMGWYRQAPGKERELVAAISSGGSTYADSVKGRFTISRDNAKNTVYLQMNSMKPEDTAVYYCNAVFRARNYHYNPRRFKYYYWGQGTQVSVSS | high polyreactivity
42 | QVQLVESGGGLVQAGGSLRLSCAASGSIFYGYAMGWYRQAPGKERELVASITGSGGSTSYADSVKGRFTISRDNAKNTVYLQMNSLKPEDTAVYYCNTVLLQLYKLASGYDYWGQGTQVTVSS | high polyreactivity
43 | QVQLLESGGGLVQAGGSLRLSCAASGYFFSDNTMGWYRQAPGKERELVAAITSGGSSYYADSVKGGFTISRDIAKNTVYLQMNSLKQEDTAVYYCDKDVLHVRRVSGQYYSVDYWGQGTQVTVSS | low polyreactivity
